In patent publication US20210324051A1 (published 2021):

T1: Ravn strain cleaved MARV GP ectodomain (Marburg virus, Ravn strain, UniProt Q1PDC7 19-648)
T1 chain: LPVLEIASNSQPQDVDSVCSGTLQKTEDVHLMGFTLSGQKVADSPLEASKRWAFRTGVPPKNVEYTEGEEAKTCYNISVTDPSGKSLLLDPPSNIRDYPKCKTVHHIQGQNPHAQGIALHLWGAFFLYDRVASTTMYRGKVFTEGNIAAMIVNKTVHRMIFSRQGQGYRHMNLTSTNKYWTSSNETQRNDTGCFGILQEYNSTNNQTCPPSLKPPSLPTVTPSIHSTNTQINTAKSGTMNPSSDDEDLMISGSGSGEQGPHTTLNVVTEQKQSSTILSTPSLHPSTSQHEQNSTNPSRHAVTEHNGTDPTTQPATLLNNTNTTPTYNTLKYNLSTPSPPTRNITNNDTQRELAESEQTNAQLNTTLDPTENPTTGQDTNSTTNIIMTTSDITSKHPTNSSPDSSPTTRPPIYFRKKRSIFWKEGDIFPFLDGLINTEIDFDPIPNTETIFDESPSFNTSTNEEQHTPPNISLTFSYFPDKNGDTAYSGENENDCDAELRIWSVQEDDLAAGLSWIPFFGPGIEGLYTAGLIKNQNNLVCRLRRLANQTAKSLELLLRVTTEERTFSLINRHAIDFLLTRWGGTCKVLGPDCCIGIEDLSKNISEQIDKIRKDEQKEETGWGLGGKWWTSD

T2: EBOV Mayinga strain cleaved GP ectodomain (Ebola virus, Mayinga strain, UniProt Q05320 33-650)
T2 chain: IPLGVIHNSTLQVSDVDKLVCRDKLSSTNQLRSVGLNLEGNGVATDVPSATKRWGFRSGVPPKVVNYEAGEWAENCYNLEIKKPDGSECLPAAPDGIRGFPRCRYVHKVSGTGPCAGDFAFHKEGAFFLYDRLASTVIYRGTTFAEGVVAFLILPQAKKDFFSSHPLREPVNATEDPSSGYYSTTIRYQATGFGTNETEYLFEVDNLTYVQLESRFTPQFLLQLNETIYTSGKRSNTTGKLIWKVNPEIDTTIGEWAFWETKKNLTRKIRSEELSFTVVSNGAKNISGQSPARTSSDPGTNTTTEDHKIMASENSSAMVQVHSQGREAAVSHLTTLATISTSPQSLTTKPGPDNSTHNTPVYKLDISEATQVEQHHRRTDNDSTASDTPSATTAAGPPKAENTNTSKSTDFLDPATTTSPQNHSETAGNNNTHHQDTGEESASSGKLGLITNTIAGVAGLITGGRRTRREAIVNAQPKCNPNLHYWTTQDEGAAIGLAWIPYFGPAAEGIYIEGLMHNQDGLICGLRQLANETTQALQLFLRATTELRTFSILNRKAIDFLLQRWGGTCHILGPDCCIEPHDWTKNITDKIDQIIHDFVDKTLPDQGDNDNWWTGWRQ

T3: EBOV Mayinga strain GP ectodomain containing the glycan cap and mucin-like domain (Ebola virus, Mayinga strain, UniProt Q05320 33-650)
T3 chain: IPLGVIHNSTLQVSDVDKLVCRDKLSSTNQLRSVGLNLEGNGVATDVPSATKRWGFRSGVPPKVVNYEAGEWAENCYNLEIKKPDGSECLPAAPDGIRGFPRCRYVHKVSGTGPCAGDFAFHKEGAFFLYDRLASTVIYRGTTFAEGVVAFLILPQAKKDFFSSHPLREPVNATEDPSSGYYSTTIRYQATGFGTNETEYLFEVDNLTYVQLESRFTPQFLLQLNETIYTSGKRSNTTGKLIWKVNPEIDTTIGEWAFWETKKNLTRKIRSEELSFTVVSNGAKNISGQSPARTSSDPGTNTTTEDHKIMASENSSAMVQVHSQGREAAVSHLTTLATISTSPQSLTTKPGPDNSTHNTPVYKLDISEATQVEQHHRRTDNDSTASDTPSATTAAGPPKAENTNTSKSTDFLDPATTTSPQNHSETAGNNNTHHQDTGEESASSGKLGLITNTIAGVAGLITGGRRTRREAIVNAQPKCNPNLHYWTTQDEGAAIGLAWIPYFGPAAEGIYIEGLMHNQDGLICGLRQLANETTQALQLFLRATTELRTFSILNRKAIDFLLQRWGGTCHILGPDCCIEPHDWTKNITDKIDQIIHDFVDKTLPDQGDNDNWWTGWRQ

T4: Angola strain MARV GP ectodomain containing the mucin-like domain (Marburg virus, Angola strain, UniProt Q1PD50 19-648)
T4 chain: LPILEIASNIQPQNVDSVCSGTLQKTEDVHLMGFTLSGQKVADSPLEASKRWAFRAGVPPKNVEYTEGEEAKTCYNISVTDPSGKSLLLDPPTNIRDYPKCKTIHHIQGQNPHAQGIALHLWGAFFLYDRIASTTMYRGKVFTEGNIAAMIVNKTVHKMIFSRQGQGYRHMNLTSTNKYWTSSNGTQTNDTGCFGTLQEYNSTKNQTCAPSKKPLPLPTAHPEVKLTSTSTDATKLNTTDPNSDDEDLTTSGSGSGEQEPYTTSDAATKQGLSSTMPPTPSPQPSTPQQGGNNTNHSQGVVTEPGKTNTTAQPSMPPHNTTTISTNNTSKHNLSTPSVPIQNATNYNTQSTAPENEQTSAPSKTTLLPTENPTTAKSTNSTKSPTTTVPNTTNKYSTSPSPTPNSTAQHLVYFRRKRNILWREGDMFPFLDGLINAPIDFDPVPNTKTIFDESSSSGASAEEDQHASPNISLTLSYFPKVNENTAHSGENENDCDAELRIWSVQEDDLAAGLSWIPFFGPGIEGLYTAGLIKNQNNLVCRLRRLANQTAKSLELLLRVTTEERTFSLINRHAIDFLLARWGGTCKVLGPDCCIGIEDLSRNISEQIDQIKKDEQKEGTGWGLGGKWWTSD

B1: MR72 human monoclonal antibody (antibody, V domains shown)
VH: QLQLQESGPGLVKPSETLSLTCTVSGDSINNTNYYWAWIRQPPGKGLEYIGSIYYSGSTYYNPSLKSRVTMSVDASKNQFSLRLSSVTAADTAVYYCATHPTLGAFVLLWFGANFDHWGQGTLVTVSS
VL: QAVVTQPPSVSGAPGQRVTISCTGSSSNIGANYDVHWYQQLPGTAPKLLMYSNTNRPSGVPDRFSGSKSGTSASLAITGLQAEDEADYYCQSYDNSLNSWVFGGGTQLTVL
B2: MR111 human monoclonal antibody (antibody, V domains shown)
V domain 1: QVQLQESGPGLVKPSETLSLTCTVSGDSINNYYWSWIRQPPGKGLEWIGYIYYSNTNYNPSLKSRVTISVDTSKNQFSLRLSSVTAADTAVYYCARSPLFWFGEFFSSPDHFDFWGQGTL
V domain 2: QSALTQPASVSGSPGQSITISCTGTSSDVGSYDLVSWYQQHPGKAPKLMLYEGTKRPSGVSNRFSGSKSGNTASLTISGLQAEDEADYYCCSYAGGSTLVFGGGTQVTVL
B3: MR209 (antibody)
chain 1: QLQLQESGPGLVKPSETLSLTCTVAGGPITSNNYYWGWIRQSPGKGLEWIGSVYYSGNTYYNPSIKTRVTMSVDTSKSQFSLKLNSVTAADTAVYYCARQFRLLQFVEWLHHFDSWGPGN
chain 2: SYVLTQPPSVSVAPGQTARIPCGGNDIANKRVHWYQQKPGQAPMLVVYDDGDRPSGIPERFSGSNSGNTATLTISRVEAGDEADYYCQVWENSSDLCVVFGGGTKLTVL
B4: MR144 (antibody, V domains shown)
V domain 1: QVQLQESGPGLVKPSETLSLTCTVSGDSISRYYWSWIRQPPGKGLEWIGYLYYSGSTDYNPSLKSRVTISVDTSKNQFSLNLTSVTAADTAVYYCARGSSRGIGVVSHWFDPWGQGT
V domain 2: SYVLTQPPSVSVAPGQTARITCGGSNMGYKSVQWYQQRPGQAPVLVVYDDTDRPSGIPERFSGSNSGATATLTISSVEAGDEADYYCQVWDSSSDHHVVFGGGTQVTVL
B5: MR82 (antibody, V domains shown)
VH: QVQLVQSGAEVKKPGASVKVSCKASGHTFTTYAIHWVRQAPGQGLEWMGWINPDNDNTEYSQKFQGRVTITRDTSASTAYMELSSLISEDTAVFYCASASYTFWSGYYSGLDYWGQGTLVTVSS
VL: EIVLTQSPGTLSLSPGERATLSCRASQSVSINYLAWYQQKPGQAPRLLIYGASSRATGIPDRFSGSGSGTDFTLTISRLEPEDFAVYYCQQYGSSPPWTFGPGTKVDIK
B6: MR241 (antibody, V domains shown)
VH: QVQLQESGPGLVKPSETLSLTCTVSGASISGNFWSWIRQPPGKGLEYIGYMSDIGTTNYSPSLKSRVTISVDTSKNQFSLNLTSVTAADAAVYYCARLVAVPGFFYHYYMDVWGEGTLVTVSS
VL: DIVMTQSPSSVSASVGDRVTITCRASQGISGWLAWYQQKPGKAPKLLIYATSTLQSGVPSRFSGSESGTAFTLTISSLQPEDFATYYCQQANSFPLTFGGGTKVEIK
B7: MR191 human monoclonal antibody (antibody, V domains shown)
VH: QLQLQESGPGLVKPSETLSLSCTVSGVSISDNSYYWGWIRQPPGKGLEWIGTISYSGNTYYNPSLKSRVSISGDTSKHQLSLKVSSVTAADTAVYYCARQRIVSGFVEWLSKFDYWGQGTLVTVSS
VL: QSVLTQPPSVSGAPGQRVTISCTGSSSNIGAGFDVHWYQQLPGTAPKLLIYDNNNRPSGVPDRFSGSKSGTSASLAITGLQAEDEADYYCQSYDTSLSGPVVFGGGTKLTVL
B8: MR232 (antibody, V domains shown)
VH: QLQLQESGPGLVKPSETLSLTCAVSGGSISSSGYCWGWIRQPPGKGLEWIASICSSGTTYFNSSLKSRVSISIDTSRPQFLLNLRSLTAADTAVYYCARQRMELHFLEWLFPFDSWGQGTLVTVSS
VL: DIVMTQSPATLSVSPGERATLSCRASQSVSSNLAWYQQKPGQAPRLLISGASTRATGIPARFSGSGSGTEFTLTISSLQSEDFAVYYCQQYINWPCSFGQGTKVDIK
B9: MR65 (antibody, V domains shown)
VH: EVQLLESGGGLVQPGGSLRLSCAASGFTFSSYAMSWVRQAPGQGLEWVSGISATGGNTYYPDSVKGRFTISRDNSKNTLYLQMNSLRAEDTAVYYCARPLQFLTWFDPWGQGTLVTVSS
VL: EIVLTQSPATLSLSPGERATLSCRASQSVNNFLAWYQQKPGQPPRLLIYDATNRATGIPARFSGSGSGTDFTLTISSLEPEDFAVYHCQHRSNWPSITFGQGTRLEIK
B10: MR229 (antibody)
chain 1: EVQLVESGGGLVKPGGSLRISCVTSGFTFGDYAMSWFRQAPGKGLEWVGFIRNKGYGGTIDYAASVKGRFTISRDDSKSIAYLQMNSLKTEDTAVYYCTGVRLHYDFWSGYDDDSFHIWGQGTM
chain 2: DGVMTQSPLSLPVTPGQPASISCRSTQSLVHGDGDTYLYWFQQRPGQSPRRLIYKVSNRDSGVPDRFSGSGSGTDFTLKISRVEAEDVGVYYCMQSTHWPPTFGQ
B11: MR208 (antibody, V domains shown)
VH: QVQLQESGPGLVKPSETLSLTCSVSGDSVSSGDYYWSWLRQPPGKGLEWIGYIYYSGATNYNPSLKSRVTISLDTSKNQFSLKLTSVTAADTAVYYCARERAGFLEWLFFEDWGQGT
VL: DIQMTQSPSSLSASVGDRVTIFCRASQSIGTYLSWYQQKPGKAPKVLIYATSNLQSGVPSRFSGSGSGTEFTLTISSLQPEDFATYYCQQSRTFGQGTKVDMK

What was measured:
Assay in all cases: ELISA
[1] = molecular target: Angola strain MARV GP ectodomain lacking residues 257-425 of the mucin-like domain (Marburg virus, Angola strain, UniProt Q1PD50 19-648)
[2] = molecular target: EBOV Mayinga strain GP ectodomain lacking residues 314-462 of the mucin-like domain (Ebola virus, Mayinga strain, UniProt Q05320 33-650)
[3] = molecular target: T1, Ravn strain cleaved MARV GP ectodomain
[4] = molecular target: T2, EBOV Mayinga strain cleaved GP …
[5] = molecular target: T3, EBOV Mayinga strain GP ectodomain …
[6] = molecular target: T4, Angola strain MARV GP ectodomain …

Row | Binder | EC50 [1] [µg/mL] | EC50 [2] [µg/mL] | EC50 [3] [µg/mL] | EC50 [4] [µg/mL] | EC50 [5] [µg/mL] | EC50 [6] [µg/mL]
1 | B1 | 4.7 | 2.1 | 0.8 | < 0.1 | 6.1 | 3
2 | B2 | 4.3 | > 1000 | 1.5 | 21.5 | > 1000 | 2.5
3 | B3 | 5.4 | > 1000 | 2 | > 1000 | > 1000 | 4
4 | B4 | 8 | > 1000 | 3.3 | > 1000 | > 1000 | 8.1
5 | B5 | 1.5 | > 1000 | 0.5 | > 1000 | > 1000 | 1
6 | B6 | 4 | > 1000 | 1.2 | > 1000 | > 1000 | 2.2
7 | B7 | 5.1 | > 1000 | 1.4 | < 0.1 | > 1000 | 2.5
8 | B8 | 1.3 | > 1000 | 0.5 | > 1000 | > 1000 | 2
9 | B9 | 7.5 | > 1000 | 5 | > 1000 | > 1000 | 8.3
10 | B10 | 2.9 | > 1000 | 1.2 | > 1000 | > 1000 | 1.8
11 | B11 | 7.3 | > 1000 | 2.8 | > 1000 | > 1000 | 5.6
